Data on one substance can be found in publication PMC9302720.

For orientation: Kd means the constant that tells how readily two partners part at equilibrium. Read a high Kd as weaker binding. By koff is commonly meant the first-order rate constant of dissociation. In general, kon refers to a measure of how fast the partners come together. Low readings indicate slower complex formation, high ones faster complex formation.

The target in the assay is SARS-CoV-2 protein S ectodomain, Wuhan-Hu-1 variant (SARS-CoV-2 | not stated) (UniProt P0DTC2). In words: BLI. Background: BLI is a label-free optical method that tracks binding on a fibre tip over time.

For “N-terminal peptidase domain of human ACE2 (domain or fragment)”, the Kd came out at 79.3 nM, the koff was determined as 0.0162 s⁻¹ and the kon is 210000 M⁻¹ s⁻¹.
